From US20240132578A1 come the findings set out here.

Where only a bound is given, the exact number is not on record here.

One may read the IC50 as the concentration that gives 50% inhibition. High values mean a need for much substance, low ones inhibition by little substance.

Assay in all cases: cell-based or functional assay
Experiment [1] addresses HIV-1 envelope glycoprotein (Env) of isolate MGRM-Chronic-B-017, on pseudovirus (HIV-1).
In experiment [2] the target is HIV-1 92BR020 Env (HIV-1).
Experiment [3] deals with HIV-1 Env of isolate MGRM-F1-021 (pseudovirus) (HIV-1).
Experiment [4] concerns the target HIV-1 envelope glycoprotein (Env) of isolate MG RM-A-009, subtype A (HIV-1).
Experiment [5] addresses HIV-1 envelope glycoprotein (Env) of isolate VLGCA1, subtype A (HIV-1).
The target in experiment [6] is HIV-1 MGRM-D-001 envelope protein (Env) on pseudovirus (HIV-1).
Experiment [7] has as its target HIV-1 envelope glycoprotein (Env) of isolate APV_13, on pseudovirus (HIV-1).
Experiment [8] concerns the target HIV-1 JR-CSF Env T413A (HIV-1 (isolate JR-CSF)) (UniProt P20871).
The target of experiment [9] is HIV-1 Env of isolate 92UG005 (pseudovirus) (HIV-1).
The target in experiment [10] is HIV-1 Env of isolate MGRM-D-014 (pseudovirus) (HIV-1).
For experiment [11], the target named is HIV-1 Env of pseudovirus isolate MGRM-C-019 (clade C) (HIV-1).
In experiment [12] the target is HIV-1 Env of isolate MGRM-D-028 (HIV-1).
The target in experiment [13] is HIV-1 Env of isolate MGRM-AE-008 (subtype AE) (HIV-1).
Experiment [14] addresses HIV-1 Env of isolate MGRM-AE-001 (subtype AE) (HIV-1).
In experiment [15] the target is HIV-1 Env of isolate 92WR009 (pseudovirus) (HIV-1).
Experiment [16] has as its target HIV-1 Env of isolate MGRM-D-001 (pseudovirus) (HIV-1).
The target in experiment [17] is HIV-1 Env of isolate MGRM-AG-002 (subtype AG) (HIV-1).
The target in experiment [18] is HIV-1 Env of isolate MGRM-A-007 (subtype A) (HIV-1).
In experiment [19] the target is HIV-1 Env of pseudovirus isolate MGRM-C-013 (clade C) (HIV-1).
Experiment [20] has as its target HIV-1 Env of isolate MGRM-Chronic-B-001 (HIV-1).
In experiment [21] the target is HIV-1 Env of isolate MGRM-A-014 (subtype A) (HIV-1).
Experiment [22] concerns the target HIV-1 Env of isolate MGRM-G-011 (subtype G) (HIV-1).
In experiment [23] the target is HIV-1 Env of isolate MGRM-C-028 (subtype C), on pseudovirus (HIV-1).
In experiment [24] the target is HIV-1 Env of isolate MG RM-A-012 (pseudovirus) (HIV-1).
Experiment [25] addresses HIV-1 Env of isolate MGRM-C-024 (subtype C), on pseudovirus (HIV-1).
Experiment [26] has as its target HIV-1 Env of pseudovirus MGRM-F1-014 (clade F) (HIV-1).
Experiment [27] deals with HIV-1 Env of isolate 93RW029 (clade A pseudovirus) (HIV-1).
The target in experiment [28] is HIV-1 Env of isolate 92RW009 (clade A pseudovirus) (HIV-1).
Experiment [29] deals with HIV-1 92RW024 envelope glycoprotein (Env) on pseudovirus (HIV-1 (clade A)).
The target of experiment [30] is HIV-1 envelope glycoprotein (Env) of isolate MGRM-C-015 (HIV-1).
In experiment [31] the target is HIV-1 envelope glycoprotein (Env) of isolate MGRM-C-022 (HIV-1).
Experiment [32] has as its target HIV-1 Env of pseudovirus MGRM-F1-016 (clade F) (HIV-1).
In experiment [33] the target is HIV-1 Env of isolate JRCSF (Clade B) (HIV-1) (UniProt P20871).
Experiment [34] has as its target HIV-1 Env of isolate MGRM-D-026 (clade D pseudovirus) (HIV-1).
The target in experiment [35] is HIV-1 Env of isolate 94UG103 (Clade A) (HIV-1).
The target of experiment [36] is HIV-1 Env of isolate MGRM-A-014 (clade A pseudovirus) (HIV-1).

Sequence of 4995_E20 (PGT-142) (antibody) (VH): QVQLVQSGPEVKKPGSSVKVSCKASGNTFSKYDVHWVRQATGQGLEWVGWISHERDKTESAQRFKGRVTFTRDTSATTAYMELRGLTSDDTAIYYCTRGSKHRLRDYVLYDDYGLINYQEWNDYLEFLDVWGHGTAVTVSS
Sequence of 4995_E20 (PGT-142) (antibody) (VL): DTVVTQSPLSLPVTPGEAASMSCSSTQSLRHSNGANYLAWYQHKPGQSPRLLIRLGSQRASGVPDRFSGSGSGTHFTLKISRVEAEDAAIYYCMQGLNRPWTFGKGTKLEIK
Sequence of 4995_P16 (PGT-145) (antibody) (VH): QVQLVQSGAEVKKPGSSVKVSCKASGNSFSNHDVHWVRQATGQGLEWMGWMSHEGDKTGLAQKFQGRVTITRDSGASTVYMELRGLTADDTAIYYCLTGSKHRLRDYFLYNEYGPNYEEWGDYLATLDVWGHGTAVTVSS
Sequence of 4995_P16 (PGT-145) (antibody) (VL): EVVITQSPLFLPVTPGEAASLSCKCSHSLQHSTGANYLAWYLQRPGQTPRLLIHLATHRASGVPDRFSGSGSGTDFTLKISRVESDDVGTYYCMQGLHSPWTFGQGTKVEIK
Sequence of 4970_K22 (PGT-144) (antibody) (VH): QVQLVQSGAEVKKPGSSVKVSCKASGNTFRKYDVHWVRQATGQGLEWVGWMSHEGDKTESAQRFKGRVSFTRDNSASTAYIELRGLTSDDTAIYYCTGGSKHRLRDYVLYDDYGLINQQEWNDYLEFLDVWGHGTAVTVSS
Sequence of 4970_K22 (PGT-144) (antibody) (VL): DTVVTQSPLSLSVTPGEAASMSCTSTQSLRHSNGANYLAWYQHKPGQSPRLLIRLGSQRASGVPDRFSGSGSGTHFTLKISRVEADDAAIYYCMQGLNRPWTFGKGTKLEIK
Sequence of 4980_N08 (PGT-143) (antibody) (VH): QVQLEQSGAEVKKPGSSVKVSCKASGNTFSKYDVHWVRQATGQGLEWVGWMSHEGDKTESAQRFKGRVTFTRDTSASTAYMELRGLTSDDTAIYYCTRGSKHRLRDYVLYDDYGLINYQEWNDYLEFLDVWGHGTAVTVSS
Sequence of 4980_N08 (PGT-143) (antibody) (VL): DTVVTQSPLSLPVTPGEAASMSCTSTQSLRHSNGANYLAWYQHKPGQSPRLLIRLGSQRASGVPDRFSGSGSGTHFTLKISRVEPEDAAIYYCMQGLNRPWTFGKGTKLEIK
Sequence of 4993_K13 (PGT-141) (antibody) (VH): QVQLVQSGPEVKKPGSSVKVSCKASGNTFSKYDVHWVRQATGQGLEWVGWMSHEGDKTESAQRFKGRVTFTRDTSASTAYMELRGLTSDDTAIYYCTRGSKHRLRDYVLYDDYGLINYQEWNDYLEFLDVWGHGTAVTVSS

Consider 4858_P08 (PGT-123) (antibody), for which the IC50, pseudovirus neutralization in experiment [1] was over 50 µg/mL; in [2], 0.013 µg/mL; in experiment [4], 0.004 µg/mL; in experiment [5], over 50 µg/mL; in [7], 0.138 µg/mL. In addition, the IC50 (µg/mL), pseudovirus neutralization in experiment [3] amounted to 0.307 µg/mL. This substance also gave an IC50 (ug/mL), pseudovirus neutralization in experiment [6] of 0.215 µg/mL. The substance further yielded a Fold IC50 increase relative to wild-type (pseudovirus neutralization) in [8] of 0.4 fold.
With 4838_L06 (PGT-121) (antibody), the IC50, pseudovirus neutralization in experiment [1] was over 50 µg/mL; in experiment [4] it was 0.006 µg/mL; in experiment [5], over 50 µg/mL; in experiment [7], 0.251 µg/mL. In experiment [3], this substance came in with an IC50 (µg/mL), pseudovirus neutralization of 0.099 µg/mL.
Consider 5145_B14 (PGT-127) (antibody), for which the IC50, pseudovirus neutralization in experiment [1] is over 50 µg/mL; in [4] it was 0.013 µg/mL; in [5], over 50 µg/mL; in experiment [7] it was 0.026 µg/mL. Also, the IC50 (µg/mL), pseudovirus neutralization in experiment [3] was over 50 µg/mL. In experiment [8], this substance had a Fold IC50 increase relative to wild-type (pseudovirus neutralization) of 0.8 fold.
Turning to 5136_H01 (PGT-131) (antibody), the IC50 (µg/mL), pseudovirus neutralization was 0.854 µg/mL in experiment [9]; 0.516 µg/mL in experiment [10]; over 50 µg/mL in experiment [12]; 3.12 µg/mL in experiment [15]; over 50 µg/mL in experiment [16]; over 50 µg/mL in experiment [20]. Moreover, the IC50, pseudovirus neutralization was 0.021 µg/mL in experiment [11]; over 50 µg/mL in experiment [13]; 4.8 µg/mL in [14]; over 50 µg/mL in experiment [17]; over 50 µg/mL in experiment [18]; over 50 µg/mL in experiment [19]. In experiment [21], this substance returned an IC50, pseudovirus neutralization of 15.4 µg/mL. Further, in experiment [8], the Fold IC50 increase relative to wild-type (pseudovirus neutralization) came out at 0.6 fold.
As to 5114_A19 (PGT-128) (antibody), the IC50 (µg/mL), pseudovirus neutralization in [9] is 0.018 µg/mL; in experiment [10], 0.013 µg/mL; in experiment [12] it was over 50 µg/mL; in [15], 0.812 µg/mL; in experiment [16], 0.138 µg/mL; in experiment [20], over 50 µg/mL. For the same substance, the IC50, pseudovirus neutralization in experiment [11] was 0.01 µg/mL; in experiment [13], over 50 µg/mL; in [14], 0.069 µg/mL; in experiment [17], 4.99 µg/mL; in experiment [18], over 50 µg/mL; in [19] it was over 50 µg/mL. Further, the IC50, pseudovirus neutralization in experiment [21] is 0.007 µg/mL. This substance registered a Fold IC50 increase relative to wild-type (pseudovirus neutralization) in experiment [8] of 1 fold.
In experiment [22], PGV04 (antibody) gave an IC50 (µg/mL), pseudovirus neutralization of 0.78 µg/mL.
4970_K22 (PGT-144) (antibody): the values for the IC50, single-round pseudovirus neutralization in experiment [23] and in experiment [25] were over 50 µg/mL and 2.06 µg/mL, respectively. For the same substance, the IC50 (µg/mL), single-round pseudovirus neutralization in experiment [24] is over 50 µg/mL. The IC50, pseudovirus neutralization in experiment [2] was over 10 µg/mL. The substance further yielded an IC50 (µg/mL), pseudovirus neutralization in experiment [22] of 1.58 µg/mL.
For the substance 4995_E20 (PGT-142) (antibody), the IC50, single-round pseudovirus neutralization in [23] was 2.12 µg/mL; in [25] it was 0.03 µg/mL. The substance further showed an IC50 (µg/mL), single-round pseudovirus neutralization in experiment [24] of over 50 µg/mL. In addition, in [2], the IC50, pseudovirus neutralization is over 10 µg/mL. In [22], this substance yielded an IC50 (µg/mL), pseudovirus neutralization of 0.046 µg/mL.
Turning to 4877_D15 (PGT-122) (antibody), the IC50, pseudovirus neutralization is 5.66 µg/mL in experiment [1]; 0.0337 µg/mL in experiment [2]; 0.012 µg/mL in experiment [4]; over 50 µg/mL in experiment [5]; 0.778 µg/mL in experiment [7]. This substance also showed an IC50 (µg/mL), pseudovirus neutralization in experiment [3] of 2.3 µg/mL. For the same substance, in [6], the IC50 (ug/mL), pseudovirus neutralization stood at 0.867 µg/mL.
In the case of 5345_I01 (PGT-137) (antibody), the IC50 (µg/mL), pseudovirus neutralization in experiment [9], in experiment [10], in experiment [12], in experiment [15], in [16] and in experiment [20] was over 50 µg/mL in each case. The IC50, pseudovirus neutralization in [11], in experiment [13], in [14], in experiment [17], in experiment [18] and in [19] was over 50 µg/mL in each case. Further, the IC50, pseudovirus neutralization in experiment [21] amounted to 18.6 µg/mL.
Regarding 4993_K13 (PGT-141) (antibody), the IC50, single-round pseudovirus neutralization in [23] is 13.8 µg/mL; in [25] it was 0.101 µg/mL. In experiment [24], this substance came in with an IC50 (µg/mL), single-round pseudovirus neutralization of over 50 µg/mL. Moreover, the IC50, pseudovirus neutralization in experiment [2] is over 10 µg/mL. Further, in [22], the IC50 (µg/mL), pseudovirus neutralization is 0.086 µg/mL.
In the case of 5141_B17 (PGT-126) (antibody), the IC50, pseudovirus neutralization in [1] is over 50 µg/mL; in experiment [2], 0.0163 µg/mL; in [4], 0.004 µg/mL; in experiment [5] it was over 50 µg/mL; in experiment [7], 0.012 µg/mL. The same substance showed an IC50 (µg/mL), pseudovirus neutralization in experiment [3] of over 50 µg/mL. Besides, the IC50 (ug/mL), pseudovirus neutralization in experiment [6] came out at 0.0639 µg/mL. In experiment [8], this substance gave a Fold IC50 increase relative to wild-type (pseudovirus neutralization) of 0.7 fold.
Turning to 4995_P16 (PGT-145) (antibody), the IC50, single-round pseudovirus neutralization in experiment [23] came to 0.099 µg/mL; in experiment [25], 0.174 µg/mL. In experiment [24], this substance had an IC50 (µg/mL), single-round pseudovirus neutralization of 0.23 µg/mL. For the same substance, the IC50 (µg/mL), pseudovirus neutralization in experiment [22] is 0.028 µg/mL.
For the substance 4980_N08 (PGT-143) (antibody), the values for the IC50, single-round pseudovirus neutralization in [23] and in [25] were 12.4 µg/mL and 0.05 µg/mL, respectively. In experiment [24], this substance showed an IC50 (µg/mL), single-round pseudovirus neutralization of over 50 µg/mL. In experiment [2], this substance yielded an IC50, pseudovirus neutralization of over 10 µg/mL. The substance also displayed an IC50 (µg/mL), pseudovirus neutralization in experiment [22] of 0.074 µg/mL.
For the substance 5123_A06 (PGT-125) (antibody), the IC50, pseudovirus neutralization in experiment [1] is over 50 µg/mL; in [2] it was 0.0214 µg/mL; in [4], 0.009 µg/mL; in [5] it was 0.078 µg/mL; in experiment [7] it was 0.007 µg/mL. For the same substance, the IC50 (µg/mL), pseudovirus neutralization in experiment [3] was over 50 µg/mL. The IC50 (ug/mL), pseudovirus neutralization in [6] stood at 2.31 µg/mL. This substance yielded a Fold IC50 increase relative to wild-type (pseudovirus neutralization) in experiment [8] of 0.5 fold.
Regarding 1496_C09 (PG9) (TCN-109) (antibody), the IC50 worked out at 0.01 µg/mL in [26] and 0.58 µg/mL in experiment [32]. The IC50 (µg/ml), pseudovirus neutralization turned out to be 1.19 µg/mL in experiment [27]; 0.03 µg/mL in experiment [28]; 0.18 µg/mL in experiment [29]; 0.5 µg/mL in [30]; 0.19 µg/mL in [31]; 0.62 µg/mL in experiment [36]. In addition, the IC90 (neutralization of pseudovirus) in experiment [33] was under 0.0025 µg/mL; in [35], 3.37 µg/mL. Also, the Neutralization IC80 in [33] came to 0.0181 µg/mL. The same substance gave a Neutralization IC90 in experiment [33] of 0.0391 µg/mL. This substance returned a Neutralization IC95 in experiment [33] of 0.0798 µg/mL. The substance also returned a neutralization IC50 in experiment [33] of 0.0048 µg/mL. The same substance yielded an IC50, pseudovirus neutralization in experiment [34] of 17.5 µg/mL. This substance gave an IC50 (µg/mL), pseudovirus neutralization in [22] of 0.335 µg/mL.
